Source: patent publication US20250368745A1 (published 2025)

T1: human IL-18BP (interleukin-18 binding protein, isoform A) (human, UniProt O95998 31-194)
T1 sequence: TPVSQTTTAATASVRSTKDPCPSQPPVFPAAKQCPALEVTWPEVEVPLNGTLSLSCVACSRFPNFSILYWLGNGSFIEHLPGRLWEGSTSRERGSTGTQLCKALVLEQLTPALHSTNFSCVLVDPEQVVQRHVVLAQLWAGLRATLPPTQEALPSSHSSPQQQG

T2: cynomolgus IL-18BP (cynomolgus monkey)
T2 construct: also called cyno IL-18BP; cyIL-18BP
T2 chain: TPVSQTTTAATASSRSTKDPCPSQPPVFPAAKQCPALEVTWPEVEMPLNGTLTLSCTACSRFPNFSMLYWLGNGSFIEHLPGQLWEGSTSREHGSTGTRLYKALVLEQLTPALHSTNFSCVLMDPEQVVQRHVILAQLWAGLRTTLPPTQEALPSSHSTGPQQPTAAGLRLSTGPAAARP

T3: human IL-18BP (human, UniProt O95998 31-194)
T3 construct: UniProt printed as 095998; also called hIL-18BP
T3 sequence: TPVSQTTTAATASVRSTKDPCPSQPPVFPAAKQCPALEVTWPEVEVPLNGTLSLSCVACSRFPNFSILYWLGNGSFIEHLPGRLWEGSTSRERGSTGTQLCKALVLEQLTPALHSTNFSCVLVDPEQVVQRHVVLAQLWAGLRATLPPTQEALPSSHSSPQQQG


Tests used:
[1] = target: T1, human IL-18BP (interleukin-18 binding …); assay: cell-based or functional assay
cynomolgus IL-18BP = target: T2, cynomolgus IL-18BP; assay: BLI, apparent KD
human IL-18BP = target: T3, human IL-18BP; assay: BLI, apparent KD

Row | Binder | EC50 in PBMC Assay 1 (endogenous IL-18BP), IFNγ [1] [nM] | EC50 in PBMC Assay 2 (precomplexed IL-18BP), IFNγ [1] [nM] | Kd (cynomolgus IL-18BP) [nM] | Kd (human IL-18BP) [nM]
1 | SA308a (antibody, human IgG1, V domains shown) VH: QVQLQESGPGLVKPSQTLSLTCTVSGYSITSDYNAHWIRQPPGKGLEWIGYIHYSGATNYNPSLKSRVTISRDTSKNQFSLKLSSVTAADTAVYYCARNYGSIYVNYFDYWGQGTLVTVSS VL: EIVLTQSPATLSLSPGERATLSCSASSSVSYMYWYQQKPGQAPRPLIYRTSNLASGIPARFSGSGSGTDFTLTISSLEPEDFAVYYCQQYHSYPTFGGGTKVEIK | 7.9 | 2.2 |  | 
2 | SA301a HC-V100aA (antibody, name in Kabat numbering, V domains shown, IgG1 kappa) VH: QVQLQESGPGLVKPSQTLSLTCTVSGYSITSDYNSHWIRQPPGKGLEWIGYIHYSGSTNYNPSLKSRVTISRDTSKNQFSLKLSSVTAADTAVYYCARNYGSIYANYFDYWGQGTLVTVSS VL: EIVLTQSPATLSLSPGERATLSCSASSSVSYMYWYQQKPGQAPRPLIYRTSNLASGIPARFSGSGSGTDFTLTISSLEPEDFAVYYCQQYHSYPTFGGGTKVEIK |  |  | 0.15 | 0.47
3 | SA301a HC-I99A (antibody, name in Kabat numbering, V domains shown, IgG1 kappa) VH: QVQLQESGPGLVKPSQTLSLTCTVSGYSITSDYNSHWIRQPPGKGLEWIGYIHYSGSTNYNPSLKSRVTISRDTSKNQFSLKLSSVTAADTAVYYCARNYGSAYVNYFDYWGQGTLVTVSS VL: EIVLTQSPATLSLSPGERATLSCSASSSVSYMYWYQQKPGQAPRPLIYRTSNLASGIPARFSGSGSGTDFTLTISSLEPEDFAVYYCQQYHSYPTFGGGTKVEIK |  |  | 0.61 | 0.51
4 | SA301a HC-N100bQ (antibody, name in Kabat numbering, V domains shown, IgG1 kappa) VH: QVQLQESGPGLVKPSQTLSLTCTVSGYSITSDYNSHWIRQPPGKGLEWIGYIHYSGSTNYNPSLKSRVTISRDTSKNQFSLKLSSVTAADTAVYYCARNYGSIYVQYFDYWGQGTLVTVSS VL: EIVLTQSPATLSLSPGERATLSCSASSSVSYMYWYQQKPGQAPRPLIYRTSNLASGIPARFSGSGSGTDFTLTISSLEPEDFAVYYCQQYHSYPTFGGGTKVEIK |  |  | 0.42 | 
5 | SA301a HC-V100aI (antibody, name in Kabat numbering, V domains shown, IgG1 kappa) VH: QVQLQESGPGLVKPSQTLSLTCTVSGYSITSDYNSHWIRQPPGKGLEWIGYIHYSGSTNYNPSLKSRVTISRDTSKNQFSLKLSSVTAADTAVYYCARNYGSIYINYFDYWGQGTLVTVSS VL: EIVLTQSPATLSLSPGERATLSCSASSSVSYMYWYQQKPGQAPRPLIYRTSNLASGIPARFSGSGSGTDFTLTISSLEPEDFAVYYCQQYHSYPTFGGGTKVEIK |  |  | 0.25 | 0.09
6 | SA301a HC-V100aF (antibody, name in Kabat numbering, V domains shown, IgG1 kappa) VH: QVQLQESGPGLVKPSQTLSLTCTVSGYSITSDYNSHWIRQPPGKGLEWIGYIHYSGSTNYNPSLKSRVTISRDTSKNQFSLKLSSVTAADTAVYYCARNYGSIYFNYFDYWGQGTLVTVSS VL: EIVLTQSPATLSLSPGERATLSCSASSSVSYMYWYQQKPGQAPRPLIYRTSNLASGIPARFSGSGSGTDFTLTISSLEPEDFAVYYCQQYHSYPTFGGGTKVEIK |  |  | 0.44 | 
7 | SA301a HC-V100aD (antibody, name in Kabat numbering, V domains shown, IgG1 kappa) VH: QVQLQESGPGLVKPSQTLSLTCTVSGYSITSDYNSHWIRQPPGKGLEWIGYIHYSGSTNYNPSLKSRVTISRDTSKNQFSLKLSSVTAADTAVYYCARNYGSIYDNYFDYWGQGTLVTVSS VL: EIVLTQSPATLSLSPGERATLSCSASSSVSYMYWYQQKPGQAPRPLIYRTSNLASGIPARFSGSGSGTDFTLTISSLEPEDFAVYYCQQYHSYPTFGGGTKVEIK |  |  | 0.36 | 4.99
8 | SA301a HC-N100bR (antibody, name in Kabat numbering, V domains shown, IgG1 kappa) VH: QVQLQESGPGLVKPSQTLSLTCTVSGYSITSDYNSHWIRQPPGKGLEWIGYIHYSGSTNYNPSLKSRVTISRDTSKNQFSLKLSSVTAADTAVYYCARNYGSIYVRYFDYWGQGTLVTVSS VL: EIVLTQSPATLSLSPGERATLSCSASSSVSYMYWYQQKPGQAPRPLIYRTSNLASGIPARFSGSGSGTDFTLTISSLEPEDFAVYYCQQYHSYPTFGGGTKVEIK |  |  |  | 0.25
9 | SA301a HC-I99Y (antibody, name in Kabat numbering, V domains shown, IgG1 kappa) VH: QVQLQESGPGLVKPSQTLSLTCTVSGYSITSDYNSHWIRQPPGKGLEWIGYIHYSGSTNYNPSLKSRVTISRDTSKNQFSLKLSSVTAADTAVYYCARNYGSYYVNYFDYWGQGTLVTVSS VL: EIVLTQSPATLSLSPGERATLSCSASSSVSYMYWYQQKPGQAPRPLIYRTSNLASGIPARFSGSGSGTDFTLTISSLEPEDFAVYYCQQYHSYPTFGGGTKVEIK |  |  | 0.45 | 0.48
10 | SA301a HC-N100bY (antibody, name in Kabat numbering, V domains shown, IgG1 kappa) VH: QVQLQESGPGLVKPSQTLSLTCTVSGYSITSDYNSHWIRQPPGKGLEWIGYIHYSGSTNYNPSLKSRVTISRDTSKNQFSLKLSSVTAADTAVYYCARNYGSIYVYYFDYWGQGTLVTVSS VL: EIVLTQSPATLSLSPGERATLSCSASSSVSYMYWYQQKPGQAPRPLIYRTSNLASGIPARFSGSGSGTDFTLTISSLEPEDFAVYYCQQYHSYPTFGGGTKVEIK |  |  | 0.47 | 
11 | SA301a HC-V100aN (antibody, name in Kabat numbering, V domains shown, IgG1 kappa) VH: QVQLQESGPGLVKPSQTLSLTCTVSGYSITSDYNSHWIRQPPGKGLEWIGYIHYSGSTNYNPSLKSRVTISRDTSKNQFSLKLSSVTAADTAVYYCARNYGSIYNNYFDYWGQGTLVTVSS VL: EIVLTQSPATLSLSPGERATLSCSASSSVSYMYWYQQKPGQAPRPLIYRTSNLASGIPARFSGSGSGTDFTLTISSLEPEDFAVYYCQQYHSYPTFGGGTKVEIK |  |  | 0.11 | 0.68
12 | SA301a HC-I99L (antibody, name in Kabat numbering, V domains shown, IgG1 kappa) VH: QVQLQESGPGLVKPSQTLSLTCTVSGYSITSDYNSHWIRQPPGKGLEWIGYIHYSGSTNYNPSLKSRVTISRDTSKNQFSLKLSSVTAADTAVYYCARNYGSLYVNYFDYWGQGTLVTVSS VL: EIVLTQSPATLSLSPGERATLSCSASSSVSYMYWYQQKPGQAPRPLIYRTSNLASGIPARFSGSGSGTDFTLTISSLEPEDFAVYYCQQYHSYPTFGGGTKVEIK |  |  | 0.89 | 0.49
13 | SA301a HC-N100bP (antibody, name in Kabat numbering, V domains shown, IgG1 kappa) VH: QVQLQESGPGLVKPSQTLSLTCTVSGYSITSDYNSHWIRQPPGKGLEWIGYIHYSGSTNYNPSLKSRVTISRDTSKNQFSLKLSSVTAADTAVYYCARNYGSIYVPYFDYWGQGTLVTVSS VL: EIVLTQSPATLSLSPGERATLSCSASSSVSYMYWYQQKPGQAPRPLIYRTSNLASGIPARFSGSGSGTDFTLTISSLEPEDFAVYYCQQYHSYPTFGGGTKVEIK |  |  | 0.11 | 
14 | SA301a HC-N100bM (antibody, name in Kabat numbering, V domains shown, IgG1 kappa) VH: QVQLQESGPGLVKPSQTLSLTCTVSGYSITSDYNSHWIRQPPGKGLEWIGYIHYSGSTNYNPSLKSRVTISRDTSKNQFSLKLSSVTAADTAVYYCARNYGSIYVMYFDYWGQGTLVTVSS VL: EIVLTQSPATLSLSPGERATLSCSASSSVSYMYWYQQKPGQAPRPLIYRTSNLASGIPARFSGSGSGTDFTLTISSLEPEDFAVYYCQQYHSYPTFGGGTKVEIK |  |  | 1.83 | 
15 | SA301a HC-V100aS (antibody, name in Kabat numbering, V domains shown, IgG1 kappa) VH: QVQLQESGPGLVKPSQTLSLTCTVSGYSITSDYNSHWIRQPPGKGLEWIGYIHYSGSTNYNPSLKSRVTISRDTSKNQFSLKLSSVTAADTAVYYCARNYGSIYSNYFDYWGQGTLVTVSS VL: EIVLTQSPATLSLSPGERATLSCSASSSVSYMYWYQQKPGQAPRPLIYRTSNLASGIPARFSGSGSGTDFTLTISSLEPEDFAVYYCQQYHSYPTFGGGTKVEIK |  |  | 0.53 | 0.28
16 | SA301a HC-I99E (antibody, name in Kabat numbering, V domains shown, IgG1 kappa) VH: QVQLQESGPGLVKPSQTLSLTCTVSGYSITSDYNSHWIRQPPGKGLEWIGYIHYSGSTNYNPSLKSRVTISRDTSKNQFSLKLSSVTAADTAVYYCARNYGSEYVNYFDYWGQGTLVTVSS VL: EIVLTQSPATLSLSPGERATLSCSASSSVSYMYWYQQKPGQAPRPLIYRTSNLASGIPARFSGSGSGTDFTLTISSLEPEDFAVYYCQQYHSYPTFGGGTKVEIK |  |  | 3.98 | 1.95
17 | SA301a HC-I99P (antibody, name in Kabat numbering, V domains shown, IgG1 kappa) VH: QVQLQESGPGLVKPSQTLSLTCTVSGYSITSDYNSHWIRQPPGKGLEWIGYIHYSGSTNYNPSLKSRVTISRDTSKNQFSLKLSSVTAADTAVYYCARNYGSPYVNYFDYWGQGTLVTVSS VL: EIVLTQSPATLSLSPGERATLSCSASSSVSYMYWYQQKPGQAPRPLIYRTSNLASGIPARFSGSGSGTDFTLTISSLEPEDFAVYYCQQYHSYPTFGGGTKVEIK |  |  | 0.51 | 0.41
18 | SA301a HC-I99D (antibody, name in Kabat numbering, V domains shown, IgG1 kappa) VH: QVQLQESGPGLVKPSQTLSLTCTVSGYSITSDYNSHWIRQPPGKGLEWIGYIHYSGSTNYNPSLKSRVTISRDTSKNQFSLKLSSVTAADTAVYYCARNYGSDYVNYFDYWGQGTLVTVSS VL: EIVLTQSPATLSLSPGERATLSCSASSSVSYMYWYQQKPGQAPRPLIYRTSNLASGIPARFSGSGSGTDFTLTISSLEPEDFAVYYCQQYHSYPTFGGGTKVEIK |  |  | 1.07 | 1.01
19 | SA301a HC-N100bE (antibody, name in Kabat numbering, V domains shown, IgG1 kappa) VH: QVQLQESGPGLVKPSQTLSLTCTVSGYSITSDYNSHWIRQPPGKGLEWIGYIHYSGSTNYNPSLKSRVTISRDTSKNQFSLKLSSVTAADTAVYYCARNYGSIYVEYFDYWGQGTLVTVSS VL: EIVLTQSPATLSLSPGERATLSCSASSSVSYMYWYQQKPGQAPRPLIYRTSNLASGIPARFSGSGSGTDFTLTISSLEPEDFAVYYCQQYHSYPTFGGGTKVEIK |  |  | 0.91 | 0.31
20 | SA301a HC-V100aH (antibody, name in Kabat numbering, V domains shown, IgG1 kappa) VH: QVQLQESGPGLVKPSQTLSLTCTVSGYSITSDYNSHWIRQPPGKGLEWIGYIHYSGSTNYNPSLKSRVTISRDTSKNQFSLKLSSVTAADTAVYYCARNYGSIYHNYFDYWGQGTLVTVSS VL: EIVLTQSPATLSLSPGERATLSCSASSSVSYMYWYQQKPGQAPRPLIYRTSNLASGIPARFSGSGSGTDFTLTISSLEPEDFAVYYCQQYHSYPTFGGGTKVEIK |  |  | 0.06 | 0.41
